Data taken from article PMC6628679 (2019).

Target: the molecule itself

B1: PfPKG (protein)
chain: MEEDDNLKKGNERNKKKAIFSNDDFTGEDSLMEDHLELREKLSEDIDMIKTSLKNNLVCSTLNDNEILTLSNYMQFFVFKSGNLVIKQGEKGSYFFIINSGKFDVYVNDKKVKTMGKGSSFGEAALIHNTQRSATIIAETDGTLWGVQRSTFRATLKQLSNRNFNENRTFIDSVSVFDMLTEAQKNMITNACVIQNFKSGETIVKQGDYGDVLYILKEGKATVYINDEEIRVLEKGSYFGERALLYDEPRSATIIAKEPTACASICRKLLNIVLGNLQVVLFRNIMTEALQQSEIFKQFSGDQLNDLADTAIVRDYPANYNILHKDKVKSVKYIIVLEGKVELFLDDTSIGILSRGMSFGDQYVLNQKQPFKHTIKSLEVCKIALITETCLADCLGNNNIDASIDYNNKKSIIKKMYIFRYLTDKQCNLLIEAFRTTRYEEGDYIIQEGEVGSRFYIIKNGEVEIVKNKKRLRTLGKNDYFGERALLYDEPRTASVISKVNNVECWFVDKSVFLQIIQGPMLAHLEERIKMQDTKVEMDELETERIIGRGTFGTVKLVHHKPTKIRYALKCVSKRSIINLNQQNNIKLEREITAENDHPFIIRLVRTFKDSKYFYFLTELVTGGELYDAIRKLGLLSKSQAQFYLGSIILAIEYLHERNIVYRDLKPENILLDKQGYVKLIDFGCAKKVQGRAYTLVGTPHYMAPEVILGKGYGCTVDIWALGICLYEFICGPLPFGNDEEDQLEIFRDILTGQLTFPDYVTDTDSINLMKRLLCRLPQGRIGCSINGFKDIKDHPFFSNFNWDKLAGRLLDPPLVSKSETYAEDIDIKQIEEEDAEDDEEPLNDEDNWDIDF
Work on B1 yielded a Kd of about 32 µM.
